Data on four molecules can be found in patent publication US11891642B2, “Biocatalytic techniques” (HYPHA DISCOVERY LIMITED, priority 2018, dated 2024).

The labels stand for the following.
B1: Mutant 10 L171I: L171I mutant of codon optimised cytochrome SriC12, SEQ ID NO: 235 (protein)
chain: MTEALPFPQDRTCPYDPPAGYQPLRDSRPLSRVTLYDGRPAWVVTGHAESRALLTDPRLSADRQNPAFPSPAPRFETLRKVRTPLLGVDDPEHNTQRRMLIPSFSVKRAAALRPRIQEIVDRLLDAMEQQGPPAELVSAFALPVPSMVICALLGVPYADHELFEGLSRTLIQSADPQEVTEARDKLEDYFTALVERKRKEPGDGLLDELIAERLDSGELGHRELVRMAMLLLVAGHETTSNMLSLGTFTLLEHPEQFAALRADPSLLPAAVEELLRFLSIADGMVRVATEDIEIGGVTIRADDGVIFSTSVVNRDGAAYASPDTLDWERSARHHVAFGFGVHQCLGQNLARAEMEIAFGALFARFPGLRLAVPAAEIPVKPAHALQGLVELPVTW
modifications: L171I mutant of SriC12
B2: Mutant 17 R63W R74Y: R63W R74Y mutant of codon optimised cytochrome SriC12, SEQ ID NO: 251 (protein)
chain: MTEALPFPQDRTCPYDPPAGYQPLRDSRPLSRVTLYDGRPAWVVTGHAESRALLTDPRLSADWQNPAFPSPAPYFETLRKVRTPLLGVDDPEHNTQRRMLIPSFSVKRAAALRPRIQEIVDRLLDAMEQQGPPAELVSAFALPVPSMVICALLGVPYADHELFEGLSRTLLQSADPQEVTEARDKLEDYFTALVERKRKEPGDGLLDELIAERLDSGELGHRELVRMAMLLLVAGHETTSNMLSLGTFTLLEHPEQFAALRADPSLLPAAVEELLRFLSIADGMVRVATEDIEIGGVTIRADDGVIFSTSVVNRDGAAYASPDTLDWERSARHHVAFGFGVHQCLGQNLARAEMEIAFGALFARFPGLRLAVPAAEIPVKPAHALQGLVELPVTW
modifications: R63W R74Y mutant of SriC12
B3: Mutant 14 L230I: L230I mutant of codon optimised cytochrome SriC12, SEQ ID NO: 237 (protein)
chain: MTEALPFPQDRTCPYDPPAGYQPLRDSRPLSRVTLYDGRPAWVVTGHAESRALLTDPRLSADRQNPAFPSPAPRFETLRKVRTPLLGVDDPEHNTQRRMLIPSFSVKRAAALRPRIQEIVDRLLDAMEQQGPPAELVSAFALPVPSMVICALLGVPYADHELFEGLSRTLLQSADPQEVTEARDKLEDYFTALVERKRKEPGDGLLDELIAERLDSGELGHRELVRMAMILLVAGHETTSNMLSLGTFTLLEHPEQFAALRADPSLLPAAVEELLRFLSIADGMVRVATEDIEIGGVTIRADDGVIFSTSVVNRDGAAYASPDTLDWERSARHHVAFGFGVHQCLGQNLARAEMEIAFGALFARFPGLRLAVPAAEIPVKPAHALQGLVELPVTW
modifications: L230I mutant of SriC12
B4: Mutant 18 R63W L171A: R63W L171A mutant of codon optimised cytochrome SriC12, SEQ ID NO: 253 (protein)
chain: MTEALPFPQDRTCPYDPPAGYQPLRDSRPLSRVTLYDGRPAWVVTGHAESRALLTDPRLSADWQNPAFPSPAPRFETLRKVRTPLLGVDDPEHNTQRRMLIPSFSVKRAAALRPRIQEIVDRLLDAMEQQGPPAELVSAFALPVPSMVICALLGVPYADHELFEGLSRTLAQSADPQEVTEARDKLEDYFTALVERKRKEPGDGLLDELIAERLDSGELGHRELVRMAMLLLVAGHETTSNMLSLGTFTLLEHPEQFAALRADPSLLPAAVEELLRFLSIADGMVRVATEDIEIGGVTIRADDGVIFSTSVVNRDGAAYASPDTLDWERSARHHVAFGFGVHQCLGQNLARAEMEIAFGALFARFPGLRLAVPAAEIPVKPAHALQGLVELPVTW
modifications: R63W L171A mutant of SriC12

The series in a line: Concentration of cytochrome P450 in cell-free extract by carbon monoxide difference spectrum (Omura and Sato). As to conditions: mutant P450SriC12 expressed in E. coli BL21 (DE3). As for the experimental part:
Measurement is performed according to the method of Omura and Sato et al. (J Biol Chem, 239. 1964, 2370). That is to say, cytochrome P450 is analyzed quantitatively using the following formula, based on the difference in the absorbance of the reduced CO versus the reduced difference spectrum at 450 nm and 490 nm.
Measurement of the concentration of cytochrome P450 were performed according to the method of Omura and Sato et al. (J Biol Chem, 239. 1964, 2370). Cytochrome P450 concentrations of cell-free extracts of induced E. coli BL21 (DE3) Rosetta2 & Tuner cells harbouring either pHD05-SriC01, pHD02-SriC12-SriF05, pHD05-SriC14-SriF06, pHD05-SriC20, pHD05-SriC22 or pHD05-SriC51-SriF08 are shown in Table 2. Carbon monoxide difference spectra for P450SriC01, P450SriC12, P450SriC14, P450SriC20, P450SriC22 and P450SriC51 are shown in FIGS. 9, 10, 11, 19, 20 & 21 respectively.
The native and codon optimised P450sriC12 and ferredoxinsriF05 in pHD02-SriC12-SriF05 and pHD02-SriC12CO-SriF05CO respectively were introduced into E. coli BL21 (DE3). The recombinant strains were cultured and proteins were induced as in Example 2. The cell-free extract material was obtained as in Example 3 and carbon monoxide difference spectrums were measure to calculate the concentration of cytochrome P450.
The resulting plasmids containing the new mutants genes were transformed into recombinant E. coli strains for expression as described in Example 1, cultured and induced as described in Example 2, extracted and processed as described in Example 3 and tested for biocatalytic activity as described in Example 5 above. The carbon monoxide difference spectrum result of R63W mutant of codon optimised P450SriC12 is shown in FIG. 14 and the cytochrome P450 concentration of mutant P450SriC12 are shown in Table 5.
In turn, B1 displayed a P450 concentration of 12.4 µM.
As to B2, the P450 concentration was 27.6 µM.
The molecule B3 returned a P450 concentration of 3.5 µM.
For B4, the P450 concentration is 22.4 µM.
